± gives the standard deviation of the averaged measurements.
What was measured:
[1] = tested on: VchCAST RNA-guided transposition machinery (E. coli BL21(DE3) host, lacZ target); assay: relative integration efficiency (T-RL orientation) vs wild-type transposon end (log2 (normalized fold change)); transposon end mutated: right end (5 bp flank + 75 bp right end); higher = more efficient transposition
Method in brief: (§1)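 Relative integration efficiency is a fold change of output over input barcode abundance, normalised to reference barcodes and log-transformed. Input plasmids and genomic integration junctions were PCR-amplified and Illumina-sequenced from E. coli BL21(DE3) co-transformed with a T7-driven effector plasmid and pUC57 donor pools of 1549 left-end or 1849 right-end transposon variants. Plating was done with 0.1 mM IPTG at 37°C for 18 h, with two biological output replicates and four reference barcodes.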

[2] = tested on: VchCAST RNA-guided transposition machinery (E. coli BL21(DE3) host, lacZ target); assay: relative integration efficiency (T-LR orientation) vs wild-type transposon end (log2 (normalized fold change)); transposon end mutated: right end (5 bp flank + 75 bp right end); higher = more efficient transposition
Method in brief: as §1

Sequence	relative integration efficiency (log2) [1]	relative integration efficiency (log2) [2]
ACATTTGTTGATACAACCATAAAATCATAATTCACCCATAAATTGATAATTATCACACCCACATTTAACTATAACGCTCTGATCATAGTCAGACCAACATTGCTACGACCCGTATTCGCACCGACAC	-4.53 ± 0.24	-0.0705 ± 0.067
ACATTTGTTGATACAACCATAAAATGATAATTACACCCATAAATTGATAATTATCACACCCATAAATTGATATTGGGAGTGATCATAGTCAGACCAACATTGCTACGACCCGTATTCGCACCGACAC	-0.111 ± 0.04	0.108 ± 0.15
ACATTTGTGGATACAACCATAAAATGATAATTACACCCATAAATTGATCATTATCACCCCCAATTTAACTATAACGCTCTGATCATAGTCAGACCAACATTGCTACGACCCGTATTCGCACCGACAC	-1.27 ± 0.17	1.99 ± 0.056
AGTTTTGTTGATACAACCATAAAATGATAATTACACCCATAAATTGATAATTATCACACCCATAAATTGATATTGCCTCTGATCATAGTCAGACCAACATTGCTACGACCCGTATTCGCACCGACAC	0.00539 ± 0.033	0.122 ± 0.29
ACATTTGTTGATACAACCATAAGTTGATATTTTCACCCATAAATTGATATTGCTCACAACCATAAGTTGATATTTTCTCTGATCATAGTCAGACCAACATTGCTACGACCCGTATTCGCACCGACAC	-0.281 ± 0.16	-0.109 ± 0.43
ACATTTGTGGATACAACCCTAAAATGATAATTACACCCATAAATTCATAATTATCACACCCAATTTAACTATAACGCTCTGATCATAGTCAGACCAACATTGCTACGACCCGTATTCGCACCGACAC	-5.07 ± 0.49	-2.97 ± 0.11
ACATTTGTTGATACAACCATAAAATGATACGTACACCCATAAATTGATAATTATCACACCCATAAATTGATATTGCCTCTGATCATAGTCAGACCAACATTGCTACGACCCGTATTCGCACCGACAC	-0.82 ± 0.068	-0.504 ± 0.23
ACATTTGTTGATACAACCATAAAGTGATATTTACAACCATAAAGTGATATTTATCAGTGGGTATTTAACTATAACGCTCTGATCATAGTCAGACCAACATTGCTACGACCCGTATTCGCACCGACAC	-0.497 ± 0.26	2.91 ± 0.034
ACATTTGTTGATACAACCATACCATGATAATTACACCCATAAATTGATAATTATCACACCCATAAATTGATATTGCCTCTGATCATAGTCAGACCAACATTGCTACGACCCGTATTCGCACCGACAC	-1.34 ± 0.079	-1.98 ± 0.24
ACATTTGTCGATACAACCATAAAATGATAATTACACCCATAAATGGATAATTATCACACCCAATTTAACTATAACGCTCTGATCATAGTCAGACCAACATTGCTACGACCCGTATTCGCACCGACAC	-1.05 ± 0.18	1.69 ± 0.097
ACATTAGTCGATACAACCATAAAATGATAATTACACCCATAAATGGATAATTATCACACCCAATTTAACTATAACGCTCTGATCATAGTCAGACCAACATTGCTACGACCCGTATTCGCACCGACAC	-6.76 ± 0.26	-5.29 ± 1.4
ACATTTGTTGATACAACCATAAAATGATAATTACACCCATAAATTGCGCCTTATCACACCCATAAATTGATATTGCCTCTGATCATAGTCAGACCAACATTGCTACGACCCGTATTCGCACCGACAC	-1.39 ± 0.2	-0.939 ± 0.25
ACATTTGTTGATACCCAAATAAAATGATAATTACACCCATAAATTGATAATTATCACACCCATAAATTGATATTGCCTCTGATCATAGTCAGACCAACATTGCTACGACCCGTATTCGCACCGACAC	-2.59 ± 0.17	-2.7 ± 0.25
ACATTTGTTGATACAACCATAAAATGATAATTACACCCATAAATGTCGAATTATCACACCCATAAATTGATATTGCCTCTGATCATAGTCAGACCAACATTGCTACGACCCGTATTCGCACCGACAC	-1.83 ± 0.081	-2.54 ± 0.58
ACATTTGTTGATACAACCATAAAGTGATATTTACAACCATAAAATGATAATTATCACAACCATATATTGATATCTCCTCTGATCATAGTCAGACCAACATTGCTACGACCCGTATTCGCACCGACAC	-0.261 ± 0.13	-0.163 ± 0.73
ACATTTGTTGATACAACCATAAAATGATAATTACACCCATAAATTGATAATTATCACACCCATAAATTGATATTGCCTCTGATAACTTCGTATAGTATACCTTATACGAAGTTATTCGCACCGACAC	-0.958 ± 0.26	1.034 ± 0.0024
TGATTTGTTGATACAACCATAAAATGATAATTACACCCATAAATTGATAATTATCACACCCATAAATTGATATTGCCTCTGATCATAGTCAGACCAACATTGCTACGACCCGTATTCGCACCGACAC	0.00782 ± 0.012	0.163 ± 0.18
ACATTTGTTGATACAACCATAAAAGGATAATTACACCCATAAATGGATAATTATCACACCCATAAATGGATATTGCCTCTGATCATAGTCAGACCAACATTGCTACGACCCGTATTCGCACCGACAC	-1.1 ± 0.065	-0.23 ± 0.13

Sequence	relative integration efficiency (log2) [1]	relative integration efficiency (log2) [2]
ACATTTGTTGATACAACCATAAAATCATCATTACACCCATCAATTGATAATTATCACACCCAATTTAACTATAACGCTCTGATCATAGTCAGACCAACATTGCTACGACCCGTATTCGCACCGACAC	-4.74 ± 0.38	-0.508 ± 0.42
ACATTTGTTGATACAACCATAAAATGATAATTACACCCATAAATTGATAATTATCAAACACCCATAAATTGATATTGCCTCTGATCATAGTCAGACCAACATTGCTACGACCCGTATTCGCACCGAC	-0.252 ± 0.046	1.9 ± 0.28
ACATTTGTTGATACAACCATAAAATGATAATTACAACCATATATTGATATCTCTCACACCCATAAATTGATAATTACTCTGATCATAGTCAGACCAACATTGCTACGACCCGTATTCGCACCGACAC	-0.651 ± 0.2	-0.0249 ± 0.15
ACATTTGCTGATACTACCATTTAATGATAATAACACCCCTAAAATGATAATTATCACACCCAATTTAACTATAACGCTCTGATCATAGTCAGACCAACATTGCTACGACCCGTATTCGCACCGACAC	-4.9716 ± 0.0047	-4.07 ± 0.06
ACATTTGTTGATACAACCCTAAAATGATAATTACACCCATAAATTCATAATTATCACCCCCAATTTAACTATAACGCTCTGATCATAGTCAGACCAACATTGCTACGACCCGTATTCGCACCGACAC	-4.15 ± 0.4	-1.67 ± 0.083
ACATTTGTTGATACAACCATAATATGATAATTACACCCATAATTTGATAATTATCACACCCATAATTTGATATTGCCTCTGATCATAGTCAGACCAACATTGCTACGACCCGTATTCGCACCGACAC	-0.262 ± 0.035	-0.428 ± 0.015
ACATTTGTTGATACAACCATAAAAGGATCATTACCCCCATCAATTGATAATTATCACACCCCATTTAACTATAACGCTCTGATCATAGTCAGACCAACATTGCTACGACCCGTATTCGCACCGACAC	-4.59 ± 0.85	-1.38 ± 0.048
ACATTTGTTGATACAACCATAAAATCATCATTACCCCCATCAATTGATAATTATCCCACCCCATTTAACTATAACGCTCTGATCATAGTCAGACCAACATTGCTACGACCCGTATTCGCACCGACAC	-5.09 ± 0.14	-1.6 ± 0.036
ACATTTTGTGATACAACCATAAAATGATAATTACACCCATAAATTGATAATTATCACACCCATAAATTGATATTGCCTCTGATCATAGTCAGACCAACATTGCTACGACCCGTATTCGCACCGACAC	-6.54 ± 0.24	< -10
ACATTTGTTGATACAACCATAAAATGATAATTACACCCATAAATTGATAATTATCACACCCATAAATTGATATTGCCAGTGATCATAGTCAGACCAACATTGCTACGACCCGTATTCGCACCGACAC	-0.39 ± 0.14	-0.53 ± 0.12
ACATTTGTTGATACAACCATAAAATGATAATTACACCCATAAATTGATAATTATGTGTCCCATAAATTGATATTGCCTCTGATCATAGTCAGACCAACATTGCTACGACCCGTATTCGCACCGACAC	-0.725 ± 0.24	1.63 ± 0.16
ACATTTGTTGATACAACCATAAAATGATAATTACACCCATACCGGTCGCCGGCGACACAAACGCCCGGTCGCGGTAAGAGGATCATAGTCAGACCAACATTGCTACGACCCGTATTCGCACCGACAC	-2.6 ± 0.11	0.296 ± 0.13
ACATTTGTTGATACAACCATTAAATGGTAATTCCACCCATAAATTGATAATTATCACACCCAATTTAACTATAACGCTCTGATCATAGTCAGACCAACATTGCTACGACCCGTATTCGCACCGACAC	-1.26 ± 0.19	2.07 ± 0.25
ACATTTGTTGATACAACCATAAAATGATAATTACACCCATAAATTGATAATTATCACACCCATAAATTGATATTGCCTCTGATCAAAATGTGAGCGAGTAACAACCTAGTCAGACCAGCACCGACAC	-0.102 ± 0.08	-0.0747 ± 0.17
ACATTTGTGGATACAACCATAAAACGATAATTACACCCATAAATGGATCATTATCACACCCAATTTAACTATAACGCTCTGATCATAGTCAGACCAACATTGCTACGACCCGTATTCGCACCGACAC	-1.81 ± 0.3	0.737 ± 0.25
ACATTTGTTGATACAACCATATATTGATATCTCCAACCATATATTGATATCTCTCAGTGGGTATTTAACTATAACGCTCTGATCATAGTCAGACCAACATTGCTACGACCCGTATTCGCACCGACAC	-1.48 ± 0.31	2.41 ± 0.14
ACATTTGTTGATACAACCATAAGTTGATATTTTCAACCATAAAGTGATATTTATCAGTGGGTATTTAACTATAACGCTCTGATCATAGTCAGACCAACATTGCTACGACCCGTATTCGCACCGACAC	-0.687 ± 0.11	2.69 ± 0.17

From the supplement of paper PMC10201428
